Measurements published in paper PMC3118390, “PKC isoforms interact with and phosphorylate DNMT1” (BMC Biology, 2011).

B1: GST fusion DNMT1 fragment 1374 to 1616 (domain or fragment, human, UniProt P26358 1374-1616, looked up)
chain: LPEVRNGASALEISYNGEPQSWFQRQLRGAQYQPILRDHICKDMSALVAARMRHIPLAPGSDWRDLPNIEVRLSDGTMARKLRYTHHDRKNGRSSSGALRGVCSCVEAGKACDPAARQFNTLIPWCLPHTGNRHNHWAGLYGRLEWDGFFSTTVTNPEPMGKQGRVLHPEQHRVVSVRECARSQGFPDTYRLFGNILDKHRQVGNAVPPPLAKAIGLEIKLCMLAKARESASAKIKEEEAAKD
notes: source: E. coli BL21, purified on glutathione-Sepharose beads
B2: GST fusion DNMT1 fragment 1081 to 1409 (domain or fragment, human, UniProt P26358 1081-1409, looked up)
chain: NRFYFLEAYNAKSKSFEDPPNHARSPGNKGKGKGKGKGKPKSQACEPSEPEIEIKLPKLRTLDVFSGCGGLSEGFHQAGISDTLWAIEMWDPAAQAFRLNNPGSTVFTEDCNILLKLVMAGETTNSRGQRLPQKGDVEMLCGGPPCQGFSGMNRFNSRTYSKFKNSLVVSFLSYCDYYRPRFFLLENVRNFVSFKRSMVLKLTLRCLVRMGYQCTFGVLQAGQYGVAQTRRRAIILAAAPGEKLPLFPEPLHVFAPRACQLSVVVDDKKFVSNITRLSSGPFRTITVRDTMSDLPEVRNGASALEISYNGEPQSWFQRQLRGAQYQPIL
notes: as for B1
B3: GST fusion DNMT1 fragment 1 to 446 (domain or fragment, human, UniProt P26358 1-446, looked up)
chain: MPARTAPARVPTLAVPAISLPDDVRRRLKDLERDSLTEKECVKEKLNLLHEFLQTEIKNQLCDLETKLRKEELSEEGYLAKVKSLLNKDLSLENGAHAYNREVNGRLENGNQARSEARRVGMADANSPPKPLSKPRTPRRSKSDGEAKPEPSPSPRITRKSTRQTTITSHFAKGPAKRKPQEESERAKSDESIKEEDKDQDEKRRRVTSRERVARPLPAEEPERAKSGTRTEKEEERDEKEEKRLRSQTKEPTPKQKLKEEPDREARAGVQADEDEDGDEKDEKKHRSQPKDLAAKRRPEEKEPEKVNPQISDEKDEDEKEEKRRKTTPKEPTEKKMARAKTVMNSKTHPPKCIQCGQYLDDPDLKYGQHPPDAVDEPQMLTNEKLSIFDANESGFESYEALPQHKLTCFSVYCKHGHLCPIDTGLIEKNIELFFSGSAKPIYDDD
notes: DNA methyltransferase 1 (DNMT1), human, amino acids 1-446; also called N-terminal domain (amino acids 1-446) of DNMT1; source: E. coli BL21, purified on glutathione-Sepharose beads

Molecular target: T1, recombinant PKCζ (human, UniProt Q05513 1-592)
T1 construct: also called rec; PKCζ
T1 sequence (looked up): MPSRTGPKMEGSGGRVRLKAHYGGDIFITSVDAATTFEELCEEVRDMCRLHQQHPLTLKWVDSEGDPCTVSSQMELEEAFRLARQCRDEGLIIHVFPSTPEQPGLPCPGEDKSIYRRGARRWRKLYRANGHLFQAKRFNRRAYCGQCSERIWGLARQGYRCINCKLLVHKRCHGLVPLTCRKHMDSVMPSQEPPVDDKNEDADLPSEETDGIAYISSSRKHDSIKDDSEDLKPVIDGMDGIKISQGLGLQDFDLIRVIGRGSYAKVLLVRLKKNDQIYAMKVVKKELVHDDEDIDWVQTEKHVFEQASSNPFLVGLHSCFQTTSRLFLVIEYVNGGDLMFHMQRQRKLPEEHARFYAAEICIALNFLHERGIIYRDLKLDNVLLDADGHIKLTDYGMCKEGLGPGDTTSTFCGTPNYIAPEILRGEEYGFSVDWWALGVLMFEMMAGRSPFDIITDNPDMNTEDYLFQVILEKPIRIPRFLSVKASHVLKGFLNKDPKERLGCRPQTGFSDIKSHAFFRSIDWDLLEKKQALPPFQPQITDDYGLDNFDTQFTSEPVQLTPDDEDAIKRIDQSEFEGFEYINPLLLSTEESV
Experiment: pull-down; GST fusion DNMT1 fragments on glutathione beads, pre-incubated with 100 μg/ml BSA; 10 ng recombinant PKCζ, 4°C, one hour; binding buffer 50 mM Tris pH 7.5, 28 μM ZnCl2, 1% Triton X-100, 220 mM NaCl, 10% glycerol; washes with 500 mM NaCl; blot with a PKCζ antibody
Details: both partners purified

Binder	binding result
B1	binds
B2	binds
B3	binds
